{
  "source": "paper PMC10973363",
  "about": "“Insights into the modulation of bacterial NADase activity by phage proteins” (Nature Communications, 2024)",
  "binders": {"B1": {"name": "DSR anti-defense 1 (DSAD1), His-tagged (natural protein)", "chain": "MIEIFKDTGATHDLVYHSKINTFVWDVEFDIVLSDSKELNKCYFVKCFNPYRINGKCDFAVSSIDIFSEGKRLLIENEFNFKITKAVHVATSKDVTEIVLHLSERISSPFPIVKEVVYLD", "notes": "phage-encoded DSAD1, WP_004399562; aa 1-9 not built in the cryo-EM model; Cloned into a pET-derived vector with an N-terminal His tag; also called anti-DSR2 protein; His-tagged DSAD1; source: E. coli Rosetta (DE3), purified (Ni-NTA, anion exchange, gel filtration); not shown: His, N-terminal, kept"}},
  "key": {"[1]": {"molecular_target": "T1, defense-associated sirtuin 2 (DSR2), full-length wild type (Bacillus subtilis 29R, UniProt P0DXN8 1-1005)", "T1 construct": "DSR2 from Bacillus subtilis 29R, WP_029317421; Cloned into the 2CT-10 vector (Addgene plasmid #55209) with His-MBP tag and TEV site; DSR2-TTP was cloned into a pET-derived vector with an N-terminal His tag; also called WT DSR2; full-length DSR2; source: E. coli Rosetta (DE3), purified (Ni-NTA, TEV cleavage, anion exchange, gel filtration); not shown: His, N-terminal, cleaved; MBP, N-terminal, …", "T1 sequence (looked up)": "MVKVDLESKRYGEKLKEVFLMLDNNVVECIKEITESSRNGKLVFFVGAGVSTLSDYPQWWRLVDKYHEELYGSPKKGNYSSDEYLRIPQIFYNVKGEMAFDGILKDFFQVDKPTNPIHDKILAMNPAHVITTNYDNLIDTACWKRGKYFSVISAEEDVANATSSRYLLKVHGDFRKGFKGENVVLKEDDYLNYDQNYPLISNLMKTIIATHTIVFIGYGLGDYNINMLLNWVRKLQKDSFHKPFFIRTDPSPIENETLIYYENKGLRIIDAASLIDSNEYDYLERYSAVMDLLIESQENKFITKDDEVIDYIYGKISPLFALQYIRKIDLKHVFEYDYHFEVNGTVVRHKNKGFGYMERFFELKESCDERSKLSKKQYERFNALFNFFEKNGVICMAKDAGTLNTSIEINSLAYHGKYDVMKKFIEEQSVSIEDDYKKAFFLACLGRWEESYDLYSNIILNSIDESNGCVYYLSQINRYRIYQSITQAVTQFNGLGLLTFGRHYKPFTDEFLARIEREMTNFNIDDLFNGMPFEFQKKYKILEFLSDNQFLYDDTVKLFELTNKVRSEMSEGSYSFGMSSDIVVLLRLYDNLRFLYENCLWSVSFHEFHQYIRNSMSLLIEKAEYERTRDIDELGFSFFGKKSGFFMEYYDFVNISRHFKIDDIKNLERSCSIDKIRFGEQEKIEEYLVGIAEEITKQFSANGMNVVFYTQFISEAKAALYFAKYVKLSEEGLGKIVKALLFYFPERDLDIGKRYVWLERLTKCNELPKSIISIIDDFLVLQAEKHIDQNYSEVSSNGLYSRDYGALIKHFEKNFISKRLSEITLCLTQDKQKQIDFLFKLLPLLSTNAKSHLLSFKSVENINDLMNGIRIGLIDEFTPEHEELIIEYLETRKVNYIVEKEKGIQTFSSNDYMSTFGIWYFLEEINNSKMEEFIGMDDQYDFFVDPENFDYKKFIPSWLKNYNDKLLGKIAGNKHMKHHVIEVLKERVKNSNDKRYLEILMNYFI", "experiment": "AUC; sedimentation velocity, samples at 1 mg/mL in gel-filtration buffer (25 mM Tris-HCl pH 7.5, 150 mM NaCl, 2 mM DTT), SEDFIT and SEDPHAT", "settings": "both partners purified"}, "DSR2 K960A/D993A": {"molecular_target": "T2, DSR2 K960A/D993A (Bacillus subtilis 29R, UniProt P0DXN8 1-1005, K960A | D993A)", "T2 construct": "DSR2 from Bacillus subtilis 29R, WP_029317421, with K960A and D993A; source: E. coli Rosetta (DE3), purified (Ni-NTA, TEV cleavage, anion exchange, gel filtration); not shown: His, N-terminal, cleaved; MBP, N-terminal, cleaved", "T2 sequence (looked up)": "T1 sequence (looked up) with K960A, D993A", "experiment": "pull-down; N-terminal His-tagged TTP or DSAD1 on Ni-NTA agarose beads, excess untagged DSR2 variants added, 1 h at 4 °C, 25 mM Tris-HCl pH 7.5, 300 mM NaCl, washes with 10 mM imidazole, SDS-PAGE with Coomassie staining", "settings": "both partners purified"}},
  "note": "Substitutions are numbered along the chain they refer to.",
  "data": [
    {"binder": "B1", "values": [
      {"measurement": "binding result", "setting": "[1]", "result": "binds"},
      {"measurement": "binding result", "setting": "DSR2 K960A/D993A", "result": "binds"}
    ]}
  ]
}
